In one assay the target is T1, Efl1 R1086Q (Saccharomyces cerevisiae, UniProt P53893, R1086Q).
T1 construct: made in house; host or cells: Saccharomyces cerevisiae
Nature of the assay: Isothermal titration calorimetry (ITC): binding of guanine nucleotides or Sdo1 to Efl1 R1086Q. The protocol:
All calorimetric measurements were carried out using MicroCal^TM iTC200 System (GE Healthcare, Northampton, MA, USA) in a temperature range of 25–35 °C. Experiments were performed in a buffer consisting of 50 mM Tris-HCl (pH 8.0), 150 mM NaCl, 100 µM DTT, and 5% glycerol. In the titrations with Mg^2+-bound nucleotides, both the ligand and protein solutions contained 5 mM MgCl2. In the case of titrations with Mg^2+-free nucleotide, both the ligand and protein solutions were supplemented with 2 mM EDTA to sequester any residual trace of metal ions in solution. Protein samples and ligands were prepared in the exact same buffer prior to each titration. Protein concentration in the cell comprised 30–50 µM GTPase, while the ligand concentration in the syringe was 2–3 mM for GTP, MgGTP, GDP, and MgGDP. To ensure measuring the interaction of the complex Efl1 R1086Q•Sdo1 with the nucleotide, an eight-fold concentration excess of Sdo1 was used compared with that of the enzyme. […] The titration schedule consisted of 15–20 consecutive injections of the ligand with 5 min intervals between injections and a stirring rate of 700 rpm. The dilution heat of the ligand was obtained by adding the ligand to a buffer solution under identical conditions and with the same injection schedule used for the protein sample. All samples were degassed for 10 min prior to the experiment.
The binding isotherms obtained for the isolated GTPase in the presence of Mg(II) were analysed using a ternary model in which the protein can bind to the free nucleotide (G(D)TP) or that bound to one magnesium ion (MgG(D)TP); additionally, GTP may also exist in the form of Mg2GTP, which is not recognised by the protein. The derivation of this coupled-equilibria model can be reviewed in [6, 31]. The binding constant (Kb), the enthalpy change (∆Hb), and the stoichiometry (n) were obtained with the non-linear routines implemented in Origin 5.0 (OriginLab, Co., Northampton, MA, USA) using a one-binding-site model as described in [32, 33]. The heterotropic cooperativity for the binding of guanine nucleotides and Sdo1 to Efl1 R1086Q were calculated as previously described in [6, 32]. The cooperative effects of Mg(II) on the binding of guanine nucleotides to Efl1 R1086Q alone and bound to Sdo1 were calculated as follows:κ = KE-MG/KE-G κ = KES-MG/KES-G Δh = ΔHE-MG − ΔHE-G Δh = ΔHES-MG − ΔHES-G where subscripts E-MG and E-G stand for the association of the metal-bound and metal-free guanine nucleotide with mutant Efl1, respectively. Corresponding expressions applied to the heterotropic cooperativity of the binding of nucleotides to the preformed complex, Efl1•Sdo1 (ES).
The impact of Sdo1 on the binding of Efl1 R1086Q to guanine nucleotides in the presence of magnesium ions is contained in KES-MG and ΔHES-MG relative to the KE-S and ΔHE-S values; analogous ratios report the effects in the absence of Mg(II):κ = KES-MG/KE-S κ = KES-G/KE-G Δh = ΔHES-MG − ΔHE-S Δh = ΔHES-G − ΔHE-G
The corresponding cooperative entropy change was calculated as:TΔs = Δh − Δg = Δh + RTlnκ
The detailed methodology and equations to compute the changes in the accessible surface area (∆ASA) of the GTPase upon binding to nucleotides and the ∆S energetic-based parameters are reported in [6]. Briefly, the water-accessible areas (ASAs) were computed using programme NACCESS, while the changes in accessible surface area (ΔASA) upon the formation of each GTPase–nucleotide complex were estimated considering the difference between the complex and the sum of the free interacting partners. The calculated polar (ΔASAp) and apolar (ΔASAap) area changes were subsequently used to estimate the free molecular partners. […]
For orientation: In ITC the heat of successive injections is recorded.

Another assay concerns wild-type Efl1. The conditions noted are these: cited from earlier work.
The target of assay [1] is T2, S. cerevisiae Efl1 R1086Q (S. cerevisiae, UniProt P53893 1-1110, R1086Q).
T2 construct: Elongation Factor-like 1 (Efl1) GTPase of S. cerevisiae with the mutation R1086Q, equivalent to human EFL1 R1095Q; also called mutant Efl1; mutant R1086Q; source: recombinantly expressed in S. cerevisiae, purified
T2 sequence (looked up): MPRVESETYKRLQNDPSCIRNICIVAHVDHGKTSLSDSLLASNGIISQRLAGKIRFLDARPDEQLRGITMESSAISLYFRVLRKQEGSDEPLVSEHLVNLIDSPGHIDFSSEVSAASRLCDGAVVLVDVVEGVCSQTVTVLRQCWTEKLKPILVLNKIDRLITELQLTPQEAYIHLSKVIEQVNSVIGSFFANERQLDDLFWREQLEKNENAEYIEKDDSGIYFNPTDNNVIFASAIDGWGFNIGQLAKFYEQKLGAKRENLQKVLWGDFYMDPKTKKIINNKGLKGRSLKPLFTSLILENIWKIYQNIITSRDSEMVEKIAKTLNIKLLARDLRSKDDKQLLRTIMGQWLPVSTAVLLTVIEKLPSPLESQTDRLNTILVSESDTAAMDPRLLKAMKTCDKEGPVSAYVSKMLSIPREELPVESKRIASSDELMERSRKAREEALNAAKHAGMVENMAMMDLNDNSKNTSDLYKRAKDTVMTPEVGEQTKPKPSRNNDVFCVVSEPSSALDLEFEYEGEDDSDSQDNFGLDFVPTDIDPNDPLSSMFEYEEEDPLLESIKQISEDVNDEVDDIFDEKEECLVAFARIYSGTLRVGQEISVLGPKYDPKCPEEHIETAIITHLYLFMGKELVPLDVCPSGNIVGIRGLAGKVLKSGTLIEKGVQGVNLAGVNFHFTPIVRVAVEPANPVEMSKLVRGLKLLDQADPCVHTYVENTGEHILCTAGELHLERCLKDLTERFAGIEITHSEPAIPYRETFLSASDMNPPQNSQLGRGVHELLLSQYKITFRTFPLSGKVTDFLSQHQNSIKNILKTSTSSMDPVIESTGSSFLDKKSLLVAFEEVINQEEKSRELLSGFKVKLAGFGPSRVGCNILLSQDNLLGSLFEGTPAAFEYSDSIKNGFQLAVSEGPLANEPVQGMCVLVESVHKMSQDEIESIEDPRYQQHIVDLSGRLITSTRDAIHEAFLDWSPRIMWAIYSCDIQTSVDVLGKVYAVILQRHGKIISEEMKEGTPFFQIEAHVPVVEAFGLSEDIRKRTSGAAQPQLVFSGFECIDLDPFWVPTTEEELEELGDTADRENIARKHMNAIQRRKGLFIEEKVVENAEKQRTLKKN
Nature of the assay: ITC; 25 °C; GTPase in the cell (30-50 µM), Sdo1 as ligand; 50 mM Tris-HCl pH 8.0, 150 mM NaCl, 100 µM DTT, 5% glycerol; one-binding-site model. The conditions noted are these: both partners purified.

In assay [2] the target is T2, S. cerevisiae Efl1 R1086Q. The experiment in a line: ITC; 30 °C; GTPase in the cell (30-50 µM), Sdo1 as ligand; 50 mM Tris-HCl pH 8.0, 150 mM NaCl, 100 µM DTT, 5% glycerol; one-binding-site model. Particulars: both partners purified.
For assay [3], the target named is T2, S. cerevisiae Efl1 R1086Q. The experiment in a line: ITC; 35 °C; GTPase in the cell (30-50 µM), Sdo1 as ligand; 50 mM Tris-HCl pH 8.0, 150 mM NaCl, 100 µM DTT, 5% glycerol; one-binding-site model. The conditions noted are these: both partners purified.
In assay [4] the target is T2, S. cerevisiae Efl1 R1086Q. The experiment in a line: ITC; coupled equilibria at 30 °C with MgGDP (5 mM MgCl2); heterotropic cooperativity calculated from the titrations of Efl1 R1086Q and of Efl1 R1086Q•Sdo1. Particulars: both partners purified.

Several values for one entry are separate records, joined by “and”; a condition that tells them apart may be missing. Identical values can stand only once.

As usually defined, the Kd is the constant that tells how readily two partners part at equilibrium.

B1: Yeast SBDS (Sdo1) (natural protein, S. cerevisiae, UniProt Q07953 1-250, looked up)
chain: MPINQPSGQIKLTNVSLVRLKKARKRFEVACYQNKVQDYRKGIEKDLDEVLQIHQVFMNVSKGLVANKEDLQKCFGTTNVDDVIEEIMHKGEIQLSEKERQLMLNKVNNEMLTIVSAKCINPVSKKRYPPTMIHKALQELKFSPVINKPAKLQALEAIKLLVSKQIIPIVRAKMKVKVAISEPSRQPELIEKISKLIASSPGESTKPELDPWTCTGLIDPVNYRDLMTLCDKKGTVQVLDMAVIDNTTHN
notes: Sdo1, the yeast orthologue of SBDS; also called yeast Shwachman-Bodian-Diamond syndrome protein; source: E. coli C41, purified
In the case of B1, the “-TΔSb” value is -3.1 kcal/mol with Efl1 R1086Q (ligand Sdo1, 25 °C); -1.3 kcal/mol in the assay with Efl1 R1086Q (ligand Sdo1, 30 °C); 0.6 kcal/mol with Efl1 R1086Q (ligand Sdo1, 35 °C); 4.4 kcal/mol with wild-type Efl1 (ligand Sdo1, 30 °C). The ΔGb is -7.4 kcal/mol with Efl1 R1086Q (ligand Sdo1, 25 °C); -7.6 kcal/mol in the assay with Efl1 R1086Q (ligand Sdo1, 30 °C); -8.1 kcal/mol with Efl1 R1086Q (ligand Sdo1, 35 °C); -9.0 kcal/mol in the assay with wild-type Efl1 (ligand Sdo1, 30 °C). Moreover, the Kd was 3000 nM with Efl1 R1086Q (ligand Sdo1, 30 °C, read-out: Kd); 300 nM at wild-type Efl1 (ligand Sdo1, 30 °C); 3900 ± 700 nM in assay [1]; 3400 ± 600 nM in assay [2]; 1800 ± 200 nM in assay [3]. Besides, the ΔCpb is −440 cal mol^−1 K^−1 and −440 ± 23 cal mol^−1 K^−1 with Efl1 R1086Q (ligand Sdo1, from ΔHb at 25–35 °C); −860 cal mol^−1 K^−1 and −860 ± 31 cal mol^−1 K^−1 with wild-type Efl1 (ligand Sdo1). Moreover, the ΔHb in the assay with wild-type Efl1 (ligand Sdo1, 30 °C) is -13.4 ± 0.4 kcal/mol. For the same molecule, the Ka in assay [1] is 256000 ± 47000 M⁻¹; in assay [2], 288000 ± 56000 M⁻¹; in assay [3], 543000 ± 76000 M⁻¹. Moreover, the dH was -4.3 ± 0.1 kcal/mol in assay [1], -6.3 ± 0.2 kcal/mol in assay [2] and -8.7 ± 0.1 kcal/mol in assay [3]. Also, the “fold decrease of the interaction with MgGDP against no nucleotide” value in assay [4] was 3 fold.

The values are drawn from PMC9405973, “Altered Conformational Landscape upon Sensing Guanine Nucleotides in a Disease Mutant of Elongation Factor-like 1 (EFL1) GTPase” (Biomolecules, 2022).
